For two variants, response results are on record in paper PMC3853298 (2013).

B1: mouse decorin core protein, wild type (residues 45-354) [modified: N-linked glycans (four consensus sites for N-linked glycosylation); N-linked glycans (four consensus sites for N-linked glycosylation)] [mouse] / rat tail type I collagen … (parent complex)
chain 1: APLALISMCPYRCQCHLRVVQCSDLGLDKVPWDFPPDTTLLDLQNNKITEIKEGAFKNLKDLHTLILVNNKISKISPEAFKPLVKLERLYLSKNQLKELPEKMPRTLQELRVHENEITKLRKSDFNGLNNVLVIELGGNPLKNSGIENGAFQGLKSLSYIRISDTNITAIPQGLPTSLTEVHLDGNKITKVDAPSLKGLINLSKLGLSFNSITVMENGSLANVPHLRELHLDNNKLLRVPAGLAQHKYIQVVYLHNNNISAVGQNDFCRAGHPSRKASYSAVSLYGNPVRYWEIFPNTFRCVYVRSAIQLGNYKAAA
chain 2: not shown
chain 3: not shown

Variants of B1 are the subject of this experiment. The experiment in a line: solid-phase binding assay (immobilized collagen, antibody-linked color reaction); decorin 2.5 µM (highest concentration); WT without collagen background est. 0.05; parent: 0.4; read off a plot.
In the case of chain 1 R111E, the response was about 0.18 OD 492.

Regarding chain 1 Y11A, chain 1 R12A, chain 1 Q14A, the response is about 0.28 OD 492.
